Laboratory results taken from the DeepSol protein solubility set.

Experiment: soluble on expression in E. coli; label from the status in PepcDB or PDB records

| Sequence | soluble on expression in E. coli |
| --- | --- |
| MVNVLSNLSNLSNILGKSNKGVGIELAPERMNIVHLCKQRQGLKIESLTTIPVPEGIVVDGQINDPPRMAEIIQQGMAESKIKASRVATCIPGRDAIVRVIPVPAELDNKELREMVLNHEAALYLPYPREEADVDYQKLGYFVDEDGIEKVQVLLVATRKEITDTYINTFAEAGLKVDVLEINSFALIRTIRDQLRLFGPQEAAVLVDIEFDSTEIAIIINGVPQFSRTVPIGTYQLQAALSRAMNLPTSRDMDMLMGMTIPTNSMDVGRTGTTGVNPGMGPMLKILGELSDELRRSIDFYINQSEGLEVAQILLAGTGGGLQQLDEFFTQRLGFPTTQIDPIRDLSLQVEAEKYPPVQRPGLGIILGLAMREG | not soluble |
| MIKSYKIRGTSLTVNRSDSYPDACNWTADSFGMLFYDPEYDLSTESLSITLDAGNDWVPEGGLVYESLPVKVTYENPEMMDYGTDWFNQGYSALGWNGEEYAYLGTDRGIVNILLEEDEKILYPNEEYDLKEGYTLKVTDLASDKACLTLSRNKLPVYSSIISPGKSADLGTHTFLYKKELNGVEVPLFSVYVDSVIQGDELSAVNLKHLLHFSDSPLELNYGKEYGELTIVETYPKLRLENKHVVWSGSDINVTEDIWIGRFEKKTAGNLFVLEHHHHHH | soluble |
| MRRSGNYNPSRWDVNFIQSLLSDYKEDKHVIRASELVTLVKMELEKETDQIRQLELIDDLQRMGLSDHFQNEFKEILSSIYLDHHYYKNPFPKEERDLYSTSLAFRLLREHGFQVAQEVFDSFKNEEGEFKESLSDDTRGLLQLYEASFLLTEGETTLESAREFATKFLEEKVNEGGVDGDLLTRIAYSLDIPLHWRIKRPNAPVWIEWYRKRPDMNPVVLELAILDLNIVQAQFQEELKESFRWWRNTGFVEKLPFARDRLVECYFWNTGIIEPRQHASARIMMGKVNALITVIDDIYDVYGTLEELEQFTDLIRRWDINSIDQLPDYMQLCFLALNNFVDDTSYDVMKEKGVNVIPYLRQSWVDLADKYMVEARWFYGGHKPSLEEYLENSWQSISGPCMLTHIFFRVTDSFTKETVDSLYKYHDLVRWSSFVLRLADDLGTSVEEVSRGDVPKSLQCYMSDYNASEAEARKHVKWLIAEVWKKMNAERVSKDSPFGKDFIGCAVDLGRMAQLMYHNGDGHGTQHPIIHQQMTRTLFEPFA | soluble |
| MTMQHASSAGRRPAVPVYLKIRNAIRDAISNAAYAPGDLLPSETELAKRYATTRATVVHAIQQLVFEGLVERKRGVGSFVAQPKLSSTVDTHRVAYFEQDAFARDLTYEVIGYGKAVVEDHVRDTLRLGRGEPVYRLQRLRLLLGKPIAFELRYLPALVGARLTAEMLARRSVQSLLDEEVGMPITRFLNAVRVALVPAAVARHLQLEKGRPVMVRTHTFLDAADTPLLWGETLYREEYQINYVLTAMQAPDEAVGGRPRKGAGRA | not soluble |
| MSLETFLCGKESCNKGYIRHPWYGKKVGYIGDSITDPNCYGDNIKKYWDFLKEWLDITPYVYGVSGRQWNDVPRQAEQLKKEHGEEVDAIVVLMGTNDFNSSVPVGTWFAEKEEQVMAARGETKKLETRKRRVPIMTNDTYKGRINIGLSHLKKLFPDKQIVLLTPLHRSLAEFGEKNVQPDESYQNKCGEYVDAYVQAIKEAGNLWGVPVIDFNSVTGMNPMIEEQLIYFYDSGYDRLHPNTNGQERMAHTLMYQLLSLPASFEGHHHHHH | soluble |
| RTDTIMVLHMPRTGEPTLLSIPRDSYVNVPGWGMDKANAAFTVGGPELLTQTVEEATGLRIDHYAEIGMGGLANMVDAVGGVEMCPAEPMYDPLANLDIQAGCQEFDGAAALGYVRTRATALGDLDRVVRQREFFSALLSTATS | not soluble |
| MGSDKIHHHHHHMSDNEIVAGIMRDHIINLLKEGKRIDDRGFEDYRPIEIEVGIIEKAEGSALVKLGSTQVLVGIKTTLGEPFPDTPNMGVMTTNVELVPLASPTFEPGPPDERAIELARVTDRGIRESRALNLEKMVIVPGKIVRVVFIDVHVLDHDGNLMDAIGIASIAALLNAKVPKVEYNEETGEVEILEEKEPLPVERIPIPVTFAKIGNILVVDPSLEEELVMDGRLTVTTDETGHISAVQKGEGGAFKLEEVMYAVETAFKKAEEIRKIVLEAIKKSGE | not soluble |
| MTEEQFSSYHPPLPPTTEEDRFSWLRLLRSRRVGPTTFRRLMHEHGTAQNALAALPEVARAAGVEGYEICPPGVVEAELKAAKAAKARLLCLGDADYPSHLAGISDAPPLLWLLGDPALLRRPMIALVGARNASSLGTRMARALAQDLGTAGFVVVSGLARGIDTAAHLAALPSGTIAVMAGGVDTVYPAENTHLAADIAQHGLRLSEQPMRLTPQARHFPRRNRIISGLAQAVVVVEAAAKSGSLITARDALDQGREVLAVPGHPFDARAAGCNMLIRDGAHLVRNAEDVITALPALTAPQPQPDLCDLMQQPAPPAKRSLRETVALHSLILDRLGPSPVAEDQLIRDLAASPGEVAPVLVDLELEGRINRQAGGLLSRVN | not soluble |
| MTTSTKLVELLYQLEAQLQKHELWQQTMPSPEALQSVEPFAIDTLDPHEWLQWIFIARMHALVESSQPLPRGFSIEPYFAEVWKQEPQYAELLNTIRTIDELCKLEHHHHHH | not soluble |
| MFYGGIDVAKYRHEICIVDESGNVILQIFVDNTRNGLDKLIHNLKRLEIEVSNVEFCLEATGHYWLSLYYHLTELGYKIHVINPIQSDALRNFYVRKTKTDRKDAHLLADIVRFGHISETKLASETVLKLQNLSRLRFEFVRQVGGLKNRVLGILDRIFPEYPQCFSNVFINTSRELLKSFTAPEDLAEADLSELTDFLNKHSRGRLGVDRAKQIQALAKGTFGINIALDAFTLELRLLVEQIEFIEEQISVIEEAIDQVMEEMRPSKDTAYRHVLETIPGIGPVLAASIIGEIGDINRFPNAKALVAYAGLDATVRSSGQFEGTRNRISKRGSPVLRHSIWLAAVSARRFNPEMKEFFEKKRSEGKHTLVATGAVARRMVHLIYSLWKDNRPFDPNYQWSPTNSR | not soluble |
| MSHFFADHDAPLSMLSVKTEYFPQLTDKEQKYAHFMSKASHAGSRVVMRQVSHESEPIFDLILAIHSKLNGKYPEDDITQKQQTGLYLEYVSQFLSNLGNFKSFGDTKFIPRCEVKFFKQLLELAKINPSSSPLTLSPVDVNHEFTSHHLFSTINELIDIGIYHVEEKAALLGFPSQGYTSAYYLGLPVTPEDMALLKEQLFAELAILPENTRINKVGENSFQIWVASENVKNQITETYPSGQITLSNAVTKVEFIFGDHSREMRLVASYLKEAQKFAANDTQKAMLQEYINHFVTGSSQAHKEAQKLWVKDISPVIETNIGFIETYREPSGIIGEFESLVAIQNKERTAKFSSLVNNAEEFISLLPWSKDYEKPIFNPPDFTSLEVLTFTGSGIPAGINIPNYDDVRLKIGFKNVSLGNILSAAAKSSSKHPPSFISQEDRPIFEKYQSDSFEVQVDIHELLGHGSGKLLTEFTDGFNFDKENPPLGLDGKPVSTYYKVGETWGSKFGQLAGPFEECRAEVIAMFLLTNKKILDIFGFHDVESQDKVIYAGYLQMARAGLLALEYWNPKTGKWGQPHMQARFSIMKTFMKHSTDKNFLKLEMNSTNDDFAIKLDKSLIKTAGHECVKDYLKHLHVYKCSGDVEQGSKYFIDRSTVTPDLASLRDIVLSKRLPRRQFIQSNSYIDDNNKVTLKEYDETPQGMLQSFLDREL | soluble |
| QRSTFGTKHMVFRTDQLIDGIERNVRITSEEVNAALPVPLLDRQDPGAILISGSSYTEPSEALQTMREAMTQEKFSGSVEIPLGIVRALLDLGFTDEAASWLEDLVPRLGNEWRHQWYSGVTSLLLDDYLTAQQHFNEVYNILPGESAPKLARAAVCEMLLQEKGLESTALLDPAVTVAAADIKGEGMSNIWRELTSDPATLRFKAIYLYALVWRTNPTTVSSAFGLARQLAAENQIDLAVSTLDRVPQNSTHRRMAELTAILHLLGDLSEARLRRAARRLEAIPTNEPRFLQIQIAIMNAALQWLRTGGEAANDPIFEYPFTQRGLRNGLSATLRQLARSAPSSHRYALVDVANQVRPMTWF | not soluble |
| MRILLSNDDGVHAPGIQTLAKALREFADVQVVAPDRNRSGASNSLTLESSLRTFTFDNGDIAVQMGTPTDCVYLGVNALMRPRPDIVVSGINAGPNLGDDVIYSGTVAAAMEGRHLGFPALAVSLNGYQHYDTAAAVTCALLRGLSREPLRTGRILNVNVPDLPLAQVKGIRVTRCGSRHPADKVIPQEDPRGNTLYWIGPPGDKYDAGPDTDFAAVDEGYVSVTPLHVDLTAHSAHDVVSDWLDSVGVGTQW | not soluble |
| MSLKNLITKLENEERLNQEEANALWDLDLFTLGKYAHKKRTKLHGKKVYFNINRHINPTNICADTCKFCAFSAHRKNPNPYLMTHEEIMKIVDETVKRETKEVHIVSAHNKDTTWQWYLEIFKMIKEKYPNLHVKAMTAAEIDFLHRRFKMSYEEVIEKMLEYGVDSMPGGGAEIFDEEVRKKICHGKVSSENWLKIHKLWHEKSKQSNATMLFGHIEERHHRIDHMLRLRDLQDQTGGFNAFIPLVWQRDKSFIQTDKIMDSEEILKTIAISRLVLDNIKNIKAYWATMTLNLAMVAQEFGANDLDGTIEKESIQSAGGAKSAKGTSLKTFIDMIKTSNLIPVERDSLYNELKTYEGHHHHHH | not soluble |
| MGSDKIHHHHHHMRATLKIAEPPVVSPSEDELRELENLYCSHGDTVHYTDKPKFFEGCEGSFVYDASQTPFLDLQMWYSAVNFGYRNERLNNAAHRQLDQLPQVASQYLHREKVELAALIARDAEQKFGHKGRVHFNVGGSQAVEDSLKLVRNFTGGKSLMFAFEGGYHGRTLGASAITSSYRYRRRYGHFSDRAQFIEFPYHFRGPKGMSKEEYGEVCVQKFARLFESEYNGVWDPKAGKSEYAAFYVEPIQGTGGYVIPPMNFFTGLKKVLDDHGILLVVDEIQMGVYRTGKLWSIEHFGVSPDVLVFGKAITNGLNPLSGIWAREEMINPTIFPPGSTHSTFASNPMGTAVALETMKMVGEGDFGASVMEKGARFLDGLKVLEKRHAIVGDVDGLGLALRMEICKEDGFTPDKATLDWMSDEGMKGDMVVDGKTYGLVLDVGGYHKNVITLAPNLMISNSEIDLALTLLDQLLTRAARR | not soluble |
| AHHHHHHGSKEIVERVKTKTKIPVYERSVENVLSAVLASDDIWRIVDLSEEPLPLVVAILESLNELGYVTFEDGVKLTEKGEELVAEYGIGKRYDFTCPHCQGKTVDLQAFADLLEQFREIVKDRPEPLHEFDQAYVTPETTVARVILMHTRGDLENKDIFVLGDDDLTSIALMLSGLPKRIAVLDIDERLTKFIEKAANEIGYEDIEIFTFDLRKPLPDYALHKFDTFITDPPETLEAIRAFVGRGIATLKGPRCAGYFGITRRESSLDKWREIQKLLLNEFNVVITDIIRNFNEYVNWGYAEETRAWKLIPIKKLPEYNWYKSYMFRIETLEGSRGYEDEIPEEDIYNDEESSTT | soluble |
| KEYFSVWMEDIIYFENSGRNVKIMTIDGTDLFVGNIKDIAKEVLPYGFIQISQSIIVNYNFVSKYSREEIILINKEKIAIPKNKRNGVKEQFL | not soluble |
| GSSMVTGGMASKWDQKGMDIAYEEALLGYKEGGVPIGGCLINNKDGSVLGRGHNMRFQKGSATLHGEISTLENCGRLEGKVYKDTTLYTTLSPCDMCTGAIIMYGIPRCVIGENVNFKSKGEKYLQTRGHEVVVVDDERCKKLMKQFIDERPQDWFEDIGE | soluble |
| MIGFAACECIIYNARSLKDKRAVLQRVMTRIRQKYNVSVAEIDHQDAWQRATIGLVAITSSRRATERELERALALIDSFPELERAATSFEWL | not soluble |
